Data taken from article PMC3657149, “Mig6 Is a Sensor of EGF Receptor Inactivation that Directly Activates c-Abl to Induce Apoptosis during Epithelial Homeostasis” (Developmental Cell, 2012).

Molecular target: immunopurified Abl (UniProt P00519-2 1-1149)
Assay: cell-based or functional assay

Chain of immunopurified Abl (P00519 other isoform, or with tags, fused parts or gaps): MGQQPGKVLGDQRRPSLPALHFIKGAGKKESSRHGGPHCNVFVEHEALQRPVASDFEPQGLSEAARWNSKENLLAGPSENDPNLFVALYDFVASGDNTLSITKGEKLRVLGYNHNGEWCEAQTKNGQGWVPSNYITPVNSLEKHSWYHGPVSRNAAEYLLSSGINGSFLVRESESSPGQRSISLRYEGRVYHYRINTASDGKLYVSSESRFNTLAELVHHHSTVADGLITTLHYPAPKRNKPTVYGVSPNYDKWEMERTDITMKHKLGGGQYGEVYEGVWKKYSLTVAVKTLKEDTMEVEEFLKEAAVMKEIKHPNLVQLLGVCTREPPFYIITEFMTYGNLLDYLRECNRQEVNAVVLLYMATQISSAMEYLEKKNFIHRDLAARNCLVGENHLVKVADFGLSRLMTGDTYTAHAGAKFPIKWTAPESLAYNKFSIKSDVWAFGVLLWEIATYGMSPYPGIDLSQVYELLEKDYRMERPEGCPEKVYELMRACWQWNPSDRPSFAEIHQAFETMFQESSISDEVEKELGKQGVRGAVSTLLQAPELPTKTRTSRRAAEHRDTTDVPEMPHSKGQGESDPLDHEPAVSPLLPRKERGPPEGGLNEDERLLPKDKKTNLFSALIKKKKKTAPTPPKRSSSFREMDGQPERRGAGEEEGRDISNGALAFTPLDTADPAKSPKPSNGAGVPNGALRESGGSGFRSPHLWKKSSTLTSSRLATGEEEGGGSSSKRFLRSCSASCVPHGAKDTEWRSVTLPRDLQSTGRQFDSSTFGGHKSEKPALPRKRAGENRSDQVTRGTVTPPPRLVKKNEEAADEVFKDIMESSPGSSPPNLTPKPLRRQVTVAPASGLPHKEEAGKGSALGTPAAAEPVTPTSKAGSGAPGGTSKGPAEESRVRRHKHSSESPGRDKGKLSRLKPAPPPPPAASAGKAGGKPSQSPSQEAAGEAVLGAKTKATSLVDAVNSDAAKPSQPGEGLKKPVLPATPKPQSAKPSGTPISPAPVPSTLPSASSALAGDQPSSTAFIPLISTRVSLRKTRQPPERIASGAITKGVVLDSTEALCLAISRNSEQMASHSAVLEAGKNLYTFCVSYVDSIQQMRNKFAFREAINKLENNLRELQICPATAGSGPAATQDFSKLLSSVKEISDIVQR

B1: bacterially produced Mig6 (natural protein, UniProt Q9UJM3 1-462, looked up)
chain: MSIAGVAAQEIRVPLKTGFLHNGRAMGNMRKTYWSSRSEFKNNFLNIDPITMAYSLNSSAQERLIPLGHASKSAPMNGHCFAENGPSQKSSLPPLLIPPSENLGPHEEDQVVCGFKKLTVNGVCASTPPLTPIKNSPSLFPCAPLCERGSRPLPPLPISEALSLDDTDCEVEFLTSSDTDFLLEDSTLSDFKYDVPGRRSFRGCGQINYAYFDTPAVSAADLSYVSDQNGGVPDPNPPPPQTHRRLRRSHSGPAGSFNKPAIRISNCCIHRASPNSDEDKPEVPPRVPIPPRPVKPDYRRWSAEVTSSTYSDEDRPPKVPPREPLSPSNSRTPSPKSLPSYLNGVMPPTQSFAPDPKYVSSKALQRQNSEGSASKVPCILPIIENGKKVSSTHYYLLPERPPYLDKYEKFFREAEETNGGAQIQPLPADCGISSATEKPDSKTKMDLGGHVKRKHLSYVVSP
activation (phosphorylation) of immunopurified Abl in the presence of bacterially produced Mig6: 2.2 fold
